The first data set deals with nucleolin (NCL) (Homo sapiens, UniProt P19338 1-710). Description: MST; MST: 300 nM FAM-aptamer, NCL 1.95 nM-4 uM, binding buffer not specified, 25 C, 15 min; AP1-AP6 and Mut folded in 100 mM KCl, 10 mM K3PO4 pH 7.0; AS1411 in 100 mM NaCl, 10 mM Tris-HCl pH 7.0; cell competition at 4 C, 1 h. The note with it: protein: commercial; label: 5'-FAM (amide bond linker); G4.
Chain of nucleolin (NCL) (P19338 whole entry): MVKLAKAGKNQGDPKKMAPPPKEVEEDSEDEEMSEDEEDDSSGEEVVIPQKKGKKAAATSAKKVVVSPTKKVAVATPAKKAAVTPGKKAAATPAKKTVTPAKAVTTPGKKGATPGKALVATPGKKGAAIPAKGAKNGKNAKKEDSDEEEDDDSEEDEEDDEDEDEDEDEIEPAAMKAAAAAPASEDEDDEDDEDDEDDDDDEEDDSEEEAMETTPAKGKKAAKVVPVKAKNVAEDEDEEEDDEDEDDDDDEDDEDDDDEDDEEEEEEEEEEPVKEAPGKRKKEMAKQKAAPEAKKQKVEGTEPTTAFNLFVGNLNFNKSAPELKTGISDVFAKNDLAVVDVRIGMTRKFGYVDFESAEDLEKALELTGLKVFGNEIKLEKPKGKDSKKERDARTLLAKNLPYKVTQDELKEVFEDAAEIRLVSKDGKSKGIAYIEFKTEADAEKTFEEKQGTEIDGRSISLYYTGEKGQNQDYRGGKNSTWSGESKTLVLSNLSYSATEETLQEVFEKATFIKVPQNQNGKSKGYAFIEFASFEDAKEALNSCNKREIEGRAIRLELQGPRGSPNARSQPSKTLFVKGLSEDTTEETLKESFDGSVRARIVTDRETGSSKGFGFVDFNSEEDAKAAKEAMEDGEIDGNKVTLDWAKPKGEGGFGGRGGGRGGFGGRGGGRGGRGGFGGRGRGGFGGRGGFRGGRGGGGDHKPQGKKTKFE
Take GUUAGGGUUUGGGAUUG (structured_RNA) [AP1-F]: the Kd stood at 474 ± 47.7 nM.

Staying with this data set, now noted: protein: commercial; label: 5'-FAM (amide bond linker); G4, loop-length variant.
For the molecule GUUAGGGUUUAUUGGGAUUG (structured_RNA) [AP4-F], the affinity, expressed as Kd, was 822 ± 290 nM.
GUUAGGGUUUUGGGAUUG (structured_RNA) [AP2-F]: binding was put at a Kd of 621 ± 269 nM.
GUUAGGGUUUAUGGGAUUG (structured_RNA) [AP3-F]: binding was put at a Kd of 499 ± 95.5 nM.
Regarding GUUAGGGUUUAUUUGGGAUUG (structured_RNA) [AP5-F], the Kd worked out at 926 ± 140 nM.
In turn, GUUAGGGUUUAUUAUGGGAUUG (structured_RNA) [AP6-F] registered a Kd of 507 ± 132 nM. This Kd is about 1.8-fold lower than that of the molecule before.

A word on the Kd: it is the constant that tells how readily two partners part at equilibrium. High values mean lower affinity, low ones higher affinity.

For the origin of these results see article PMC12650828, “Dual-Mode Aptamer AP1-F Achieves Molecular–Morphological Precision in Cancer Diagnostics via Membrane NCL Targeting”.
